# Results taken from publication PMC12756313.
# Target: Protein A (coating of 10 μm silica microparticles) (UniProt P38507)
# Assay: flow cytometry of beads; protein A coated on 10 μm silica particles, incubated with PE Mouse Anti-Human CD9 for 1 h, washed twice by centrifugation (200× g, 1 min); FACS Canto II, PE excitation 488 nm, filter 585/42; unlabeled proteinA-Silica particles used to set the gate
substance,measurement,value
"BD PE Mouse Anti-Human CD9 (Catalogue #341647, BD Biosciences) (antibody)",percent of beads positive for PE,93%
